Results on one substance are retold here after paper doi:10.1101/2020.12.18.423418.

The target in the experiment is SARS-CoV-2 S1 protein containing a C-terminal His-tag (Acro; S1N-C52H3) (SARS-CoV-2) (UniProt P0DTC2). Kind of experiment: flow cytometry on cells. (In general: Flow cytometry measures light scatter and fluorescence of single cells or particles in a stream.)

The substance “recombinant fragment of human surfactant protein D (rfhSP-D) (from UniProt P35247 199-375) (domain or fragment)” showed a percent reduction of S1 binding to ACE2 on cells at 10 μg/ml rfhSP-D of 35%.
